{"source": "paper PMC4122339", "about": "“Carbonic Anhydrase Generates CO2 and H^+ That Drive Spider Silk Formation Via Opposite Effects on the Terminal Domains” (PLoS Biology, 2014)", "target": "the molecule itself", "assay": "NMR structure; solution NMR at 298 K; 1 mM protein in 20 mM sodium phosphate pH 6.8, 20 mM NaCl; intermolecular NOEs from a 13C/15N-filtered NOESY on a 50% labelled / 50% unlabelled sample, used as distance restraints with an upper limit of 5 Å"}
{"protein": "Araneus ventricosus minor ampullate spidroin (MiSp) C-terminal domain, truncated construct (residues 31-150 of the 150-residue C-terminal part) (domain or fragment, uniformly 13C/15N-labelled (a mixed sample of 50% 13C/15N-labelled and 50% unlabelled protein was used for the intermolecular NOEs), C-terminal domain of minor ampullate spidroin (MiSp), Araneus ventricosus; residues 31-150 of the printed 150-residue construct; PDB 2MFZ would settle this; also called A. ventricosus MiSp CT; source: E. coli BL21 (DE3), minimal medium, purified (Ni-NTA, thrombin cleavage, Ni-NTA); not shown: His tag-Thioredoxin-His tag, N-terminal, cleaved) VTSGGYGYGTSAAAGAGVAAGSYAGAVNRLSSAEAASRVSSNIAAIASGGASALPSVISNIYSGVVASGVSSNEALIQALLELLSALVHVLSSASIGNVSSVGVDSTLNVVQDSVGQYVG", "values": [{"measurement": "binding result", "result": "binds"}]}
